Measurements taken from patent US12698507B2, “Methods and compositions for conferring and/or enhancing herbicide tolerance using protoporphyrinogen IX oxidase of various cyanobacteria or variant thereof” (FarmHannong Co., Ltd., priority 2019, dated 2026).

B1: CyPPO19 V165C + A167C + I408W + F360T: variant of CyPPO19 PPO protein (SEQ ID NO: 1) (protein)
chain: MSEVDVAIVGGGLSGLSLAWRLQQSAPQYSVVLLEASDRLGGNITTQTAEGFVWELGPNSFAPTPALLQLIAEVGLQSELIRGDRHLPRYIYWRGQLYPLQPTRPLALATSNLLSPWGKVRAALGALGFVPPYLGSGDESVNSFFRRHLGQEVAERLVAPFVSGCYCGDPQQLSAAAAFRRIAQLEKLGGGLIAGALHLRRQQAPKPKPPTSVQMRPGELGSFKEGLAALPRAIAQQLKAPIHLQTPVQEITPDPKGGYLLRSGEQTWRARSVVLATPAYQTAELVAPFQPAIARVLATIPYPTVACVVLAYPAGLGRSVRPGFGVLIPRSQGIRTLGTIWSSCLFPQRTPAGWQVFTSTIGGATDPDLASLSEEAIVQQVQQDLNRLLDLPAAKARLLGMKVWRRAWPQYMVGYPEQWQQVTHALSQTPGLFLCSNYAEGVALGDRVEHGNRTAAAVAAYLSGGQP
modifications: Synthetic_PPO of Thermosynechococcus elongatus PKUAC-SCTE542 (comprising GenBank No. CP032152.1)
B2: CyPPO19 A167L + V305M + I408R + F360M: variant of CyPPO19 PPO protein (SEQ ID NO: 1) (protein)
chain: MSEVDVAIVGGGLSGLSLAWRLQQSAPQYSVVLLEASDRLGGNITTQTAEGFVWELGPNSFAPTPALLQLIAEVGLQSELIRGDRHLPRYIYWRGQLYPLQPTRPLALATSNLLSPWGKVRAALGALGFVPPYLGSGDESVNSFFRRHLGQEVAERLVAPFVSGVYLGDPQQLSAAAAFRRIAQLEKLGGGLIAGALHLRRQQAPKPKPPTSVQMRPGELGSFKEGLAALPRAIAQQLKAPIHLQTPVQEITPDPKGGYLLRSGEQTWRARSVVLATPAYQTAELVAPFQPAIARVLATIPYPTMACVVLAYPAGLGRSVRPGFGVLIPRSQGIRTLGTIWSSCLFPQRTPAGWQVFTSMIGGATDPDLASLSEEAIVQQVQQDLNRLLDLPAAKARLLGMKVWRRARPQYMVGYPEQWQQVTHALSQTPGLFLCSNYAEGVALGDRVEHGNRTAAAVAAYLSGGQP
modifications: Synthetic_PPO of Thermosynechococcus elongatus PKUAC-SCTE542 (comprising GenBank No. CP032152.1)
B3: CyPPO19 V165S + F360L: variant of CyPPO19 PPO protein (SEQ ID NO: 1) (protein)
chain: MSEVDVAIVGGGLSGLSLAWRLQQSAPQYSVVLLEASDRLGGNITTQTAEGFVWELGPNSFAPTPALLQLIAEVGLQSELIRGDRHLPRYIYWRGQLYPLQPTRPLALATSNLLSPWGKVRAALGALGFVPPYLGSGDESVNSFFRRHLGQEVAERLVAPFVSGSYAGDPQQLSAAAAFRRIAQLEKLGGGLIAGALHLRRQQAPKPKPPTSVQMRPGELGSFKEGLAALPRAIAQQLKAPIHLQTPVQEITPDPKGGYLLRSGEQTWRARSVVLATPAYQTAELVAPFQPAIARVLATIPYPTVACVVLAYPAGLGRSVRPGFGVLIPRSQGIRTLGTIWSSCLFPQRTPAGWQVFTSLIGGATDPDLASLSEEAIVQQVQQDLNRLLDLPAAKARLLGMKVWRRAIPQYMVGYPEQWQQVTHALSQTPGLFLCSNYAEGVALGDRVEHGNRTAAAVAAYLSGGQP
modifications: Synthetic_PPO of Thermosynechococcus elongatus PKUAC-SCTE542 (comprising GenBank No. CP032152.1)
B4: CyPPO19 V305L + L327T + I408W + F360V: variant of CyPPO19 PPO protein (SEQ ID NO: 1); printed 305L in Table 9 (protein)
chain: MSEVDVAIVGGGLSGLSLAWRLQQSAPQYSVVLLEASDRLGGNITTQTAEGFVWELGPNSFAPTPALLQLIAEVGLQSELIRGDRHLPRYIYWRGQLYPLQPTRPLALATSNLLSPWGKVRAALGALGFVPPYLGSGDESVNSFFRRHLGQEVAERLVAPFVSGVYAGDPQQLSAAAAFRRIAQLEKLGGGLIAGALHLRRQQAPKPKPPTSVQMRPGELGSFKEGLAALPRAIAQQLKAPIHLQTPVQEITPDPKGGYLLRSGEQTWRARSVVLATPAYQTAELVAPFQPAIARVLATIPYPTLACVVLAYPAGLGRSVRPGFGVTIPRSQGIRTLGTIWSSCLFPQRTPAGWQVFTSVIGGATDPDLASLSEEAIVQQVQQDLNRLLDLPAAKARLLGMKVWRRAWPQYMVGYPEQWQQVTHALSQTPGLFLCSNYAEGVALGDRVEHGNRTAAAVAAYLSGGQP
modifications: Synthetic_PPO of Thermosynechococcus elongatus PKUAC-SCTE542 (comprising GenBank No. CP032152.1)
B5: CyPPO19 A167I + V305L + L327T + F360V: variant of CyPPO19 PPO protein (SEQ ID NO: 1) (protein)
chain: MSEVDVAIVGGGLSGLSLAWRLQQSAPQYSVVLLEASDRLGGNITTQTAEGFVWELGPNSFAPTPALLQLIAEVGLQSELIRGDRHLPRYIYWRGQLYPLQPTRPLALATSNLLSPWGKVRAALGALGFVPPYLGSGDESVNSFFRRHLGQEVAERLVAPFVSGVYIGDPQQLSAAAAFRRIAQLEKLGGGLIAGALHLRRQQAPKPKPPTSVQMRPGELGSFKEGLAALPRAIAQQLKAPIHLQTPVQEITPDPKGGYLLRSGEQTWRARSVVLATPAYQTAELVAPFQPAIARVLATIPYPTLACVVLAYPAGLGRSVRPGFGVTIPRSQGIRTLGTIWSSCLFPQRTPAGWQVFTSVIGGATDPDLASLSEEAIVQQVQQDLNRLLDLPAAKARLLGMKVWRRAIPQYMVGYPEQWQQVTHALSQTPGLFLCSNYAEGVALGDRVEHGNRTAAAVAAYLSGGQP
modifications: Synthetic_PPO of Thermosynechococcus elongatus PKUAC-SCTE542 (comprising GenBank No. CP032152.1)

Test system: PPO-deficient BT3 E. coli (ΔPPO)
Test: PPO-inhibiting herbicide tolerance test of PPO variants in E. coli (growth on herbicide-containing LB agar)
Format: cell-based
Settings: CyPPO19 variants in BT3 (ΔPPO) E. coli; LB agar with 0 to 2,000 μM herbicide, 37° C., dark, 16-20 hours
Procedure, shortened: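 Transformants were grown to OD600 0.5–1, adjusted to OD600=0.5 and spotted as 10-fold dilutions on LB agar with ampicillin (100 μg/mL) and 0 to 2,000 μM herbicide. Plates were kept at 37° C in the dark for 16-20 hours; growth was scored relative to wild type, one '+' per 10-fold resistance.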

| Molecule | tolerance level relative to wild type, Carfentrazone | tolerance level relative to wild type, Flumioxazin | tolerance level relative to wild type, Fomesafen | tolerance level relative to wild type, Oxyfluorfen | tolerance level relative to wild type, Saflufenacil | tolerance level relative to wild type, Sulfentrazone | tolerance level relative to wild type, Tiafenacil |
| --- | --- | --- | --- | --- | --- | --- | --- |
| B1 | + (‘+’ per each 10-fold resistance) | ++++ (‘+’ per each 10-fold resistance) | ++ (‘+’ per each 10-fold resistance) | ++ (‘+’ per each 10-fold resistance) | ++++ (‘+’ per each 10-fold resistance) | +++ (‘+’ per each 10-fold resistance) | ++++ (‘+’ per each 10-fold resistance) |
| B2 | + (‘+’ per each 10-fold resistance) | +++++ (until ‘+++++’ as maximal resistance) | +++ (‘+’ per each 10-fold resistance) | +++ (‘+’ per each 10-fold resistance) | +++++ (until ‘+++++’ as maximal resistance) | +++++ (until ‘+++++’ as maximal resistance) | +++++ (until ‘+++++’ as maximal resistance) |
| B3 | + (‘+’ per each 10-fold resistance) | ++++ (‘+’ per each 10-fold resistance) | ++ (‘+’ per each 10-fold resistance) | ++ (‘+’ per each 10-fold resistance) | ++++ (‘+’ per each 10-fold resistance) | +++ (‘+’ per each 10-fold resistance) | ++++ (‘+’ per each 10-fold resistance) |
| B4 | + (‘+’ per each 10-fold resistance) | +++++ (until ‘+++++’ as maximal resistance) | +++ (‘+’ per each 10-fold resistance) | +++ (‘+’ per each 10-fold resistance) | +++++ (until ‘+++++’ as maximal resistance) | +++++ (until ‘+++++’ as maximal resistance) | +++++ (until ‘+++++’ as maximal resistance) |
| B5 | + (‘+’ per each 10-fold resistance) | +++++ (until ‘+++++’ as maximal resistance) | +++ (‘+’ per each 10-fold resistance) | +++ (‘+’ per each 10-fold resistance) | ++++ (‘+’ per each 10-fold resistance) | ++++ (‘+’ per each 10-fold resistance) | +++++ (until ‘+++++’ as maximal resistance) |
